In patent US20050038229A1 (published 2005):
Where a chain is given by its changes, count along the chain named.

B1: M12.08 (designed binder)
chain: VSDVPRDLEVVAATPTSLLNVPIIRYYRITYGETGGNSPVQEFTVPAPKAIATTSGLKPGVDYTITVYGVTSHRNHFHVETPISINYQA
notes: BC loop cell holds only II
B2: T14.22 (designed binder)
chain: VSDVPRDLEVVAATPSSRLISWRPGRTYSRYYRITYGETGGNSPVQEFTVPPWANTATISGLKPGVDYTIAVYAVTFPTGYPLTEMPISINYRT
B3: M12.09 (designed binder)
chain: B2 chain with S16T, T27A, Y32F, T79P, G80R, T94A
B4: T14.02 (designed binder)
chain: VSDVPRDLEVVVATPTSQLISWMTPHNHVRYYGITYGETGGNSPVQESTVPTGNATATISGLKPGVDYTITVYAVTPHHGHFDLEPPISINYRT
B5: T14.21 (designed binder)
chain: VSDVPRDLEVVAATPTSRLISWRPGRTYSRYYRITYGETGGNSPVQEFTVPPWANTATISGLKPGVDYTITAYAVTYTHSTPMQDEPISINYRT
B6: T14.20 (designed binder)
chain: VSDVPRDLEVVAATPTSRLISWRNIYPIARYYRITYGETGGNSPVQEFTVPPWASIATISGLKPGADYTITVYAVTDKSDTYKYDDPISINYRT
B7: M12.16 (designed binder)
chain: B6 chain with N24P, I25G, Y26R, P27T, I28Y, A29S, T39A, A66V, D80G, K83R
B8: M12.04 (designed binder)
chain: VSDVPGDLEVVAATPTSLLIGWSMTPNWPRYYRIAYGETGGDSPVQEFTVPPWASIAIIGGLKPGVDYTITVYAVTHRDTPISINYRT
notes: FG loop cell holds only HRDT
B9: M12.22 (designed binder)
chain: VSDVPRDLRVVAATPTSRLISWRPASNPARYYRITYGETGGNSPVQEFTVPPWASVATIGGLKPGVDYTVTVYAVTAQTGHRLHDKPISINYRT
B10: M12.12 (designed binder)
chain: VSDVPSDLEVVAATPTSLLISWEQSPTYGRYYRITYGETGGNSPVQEFTVPGSKSTATISGRKPGADYTITVYAVTIEKDRIPLFGPISISYRT
B11: M12.24 (designed binder)
chain: VSDVPRDLEVVAATPTSRLISWNRSGLQSGYYRITYGETGGNSPVQEFTVPPWASIATISGLKPGVDYTITVYAVTPNVGRLDTRYPISIDCRT
B12: M12.14 (designed binder)
chain: VSDVPRDLKVVAATPTSRLISWTHDNVPARYYRITYGETGGNSPVQELTVPPWASIATISGLKPGVDYTITVYAVTLYTGNHRPEHPISINYRT
B13: M12.19 (designed binder)
chain: VSDVPRDLEVVAATPTGLLISWRNNQYTPRHYGITYGETGGKSPVQEFTVPELNPTATISRLKPGVDYTITVYAVTQNGTPRVIYGPISINYRT
B14: T10.15 (designed binder)
chain: VSDVPRDLEVVAATPTSLLISWHTERSFPRYYRITYGETGGNSPVQEFTVPPWGSIATISGLKPGVDYTITVYAVTEHYRDTGTGHPIPINYRT

molecular target: T1, tumor necrosis factor-α (TNF-α) (human, UniProt P01375 77-233, biotinylated with NHS-LC-LC-Biotin in the Kd and fluorescence assays; coupled to Epoxy-Activated Sepharose 6B in the column assays); assay: 35S free protein + biotin-TNF-α, capture membrane, equilibrium fit
T1 construct: Bought from Pepro Tech; also called biotin-TNF-α; biotinylated TNF-α
T1 sequence (P01375 77-233 limits assumed): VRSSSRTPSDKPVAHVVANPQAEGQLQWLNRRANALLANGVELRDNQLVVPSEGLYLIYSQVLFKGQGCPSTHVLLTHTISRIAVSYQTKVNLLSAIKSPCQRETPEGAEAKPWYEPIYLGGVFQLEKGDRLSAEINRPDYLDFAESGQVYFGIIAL
Protocol: Subsequently, each sample was loaded on a pre-soaked, SAM2R Biotin Capture Membrane (Promega, Madison, Wis.) using a 96 well, Easy-Titer™ ELIFA system (Pierce). Under vacuum, each spot was washed with 200 μL of HBS pH 7.4, 1% BSA, 0.05% Triton; next the entire membrane was rinsed in the buffer and air-dried. The membrane was exposed with a Storage Phosphor Screen (Molecular Dynamics, Sunnyvale, Calif.) overnight, and the intensities of the resulting individual spots were quantified using a STORM 860 phosphoimager with the ImageQuaNT densitometry program (Molecular Dynamics). The Kd of the binding was determined by fitting the equilibrium equation to the resulting binding curve (KaleidaGraph, Synergy Software); the error of the experiment was estimated from 2-4 independent experiments.

B1 and B2 are within 1.5-fold of each other in Kd: 0.6 nM for the first, 0.4 nM for the second.

B3 and B4 are within 1.5-fold of each other in Kd: 0.4 nM for the first, 0.5 nM for the second.

First: B5
Second: B6
The Kd of the first is 64-fold higher: 7 nM for the first, 0.11 nM for the second.

Compared with B7, B8 is 15-fold lower in Kd: 0.3 nM for the first, 0.02 nM for the second.

First: B9
Second: B10
The Kd of the first is 3.5-fold higher: 0.7 nM for the first, 0.2 nM for the second.

B11 and B12 are within 1.5-fold of each other in Kd: 1.3 nM for the first, 1.7 nM for the second.

Going from B13 to B14, the Kd rises from 0.6 nM to 4 nM (6.7-fold). The first binds more tightly here.
